Source: the supplement of paper PMC11246515
± gives the standard deviation of the averaged measurements.

Experiment: total protein half-life in vivo (active degradation + dilution); higher = more stable protein
[1] = E. coli NCM3722 delta-clpP delta-lon delta-hslV, growth: N-lim chemostat, doubling time 6 h
[2] = E. coli NCM3722 delta-clpP, growth: N-lim chemostat, doubling time 6 h
[3] = E. coli NCM3722 delta-hslV, growth: N-lim chemostat, doubling time 6 h
[4] = E. coli NCM3722 delta-smpB, growth: N-lim chemostat, doubling time 6 h
[5] = wild type E. coli NCM3722, growth: C-lim chemostat, doubling time 3 h
[6] = wild type E. coli NCM3722, growth: C-lim chemostat, doubling time 6 h
[7] = wild type E. coli NCM3722, growth: C-lim chemostat, doubling time 12 h
[8] = wild type E. coli NCM3722, growth: N-lim chemostat, doubling time 6 h
[9] = wild type E. coli NCM3722, growth: N-lim chemostat, doubling time 12 h
[10] = wild type E. coli NCM3722, growth: P-lim chemostat, doubling time 6 h
[11] = wild type E. coli NCM3722, growth: P-lim chemostat, doubling time 12 h
[12] = E. coli NCM3722 delta-lon, growth: N-lim chemostat, doubling time 6 h

Sequence	total protein half-life in vivo [1] [h]	total protein half-life in vivo [2] [h]	total protein half-life in vivo [3] [h]	total protein half-life in vivo [4] [h]	total protein half-life in vivo [5] [h]	total protein half-life in vivo [6] [h]	total protein half-life in vivo [7] [h]	total protein half-life in vivo [8] [h]	total protein half-life in vivo [9] [h]	total protein half-life in vivo [10] [h]	total protein half-life in vivo [11] [h]	total protein half-life in vivo [12] [h]
MWSEYSLEVVDAVARNGSFSAAAQELHRVPSAVSYTVRQLEEWLAVPLFERRHRDVELTAAGAWFLKEGRSVVKKMQITRQQCQQIANGWRGQLAIAVDNIVRPERTRQMIVDFYRHFDDVELLVFQEVFNGVWDALSDGRVELAIGATRAIPVGGRYAFRDMGMLSWSCVVASHHPLALMDGPFSDDTLRNWPSLVREDTSRTLPKRITWLLDNQKRVVVPDWESSATCISAGLCIGMVPTHFAKPWLNEGKWVALELENPFPDSACCLTWQQNDMSPALTWLLEYLGDSETLNKEWLREPEETPATGD [P0ACR2]	5.69 ± 0.2	5.02 ± 0.17	4.85 ± 1.3	4.6 ± 0.3	2.594 ± 0.0057	> 8	10.5 ± 0.11	4.8 ± 0.11	8.76 ± 0.09	5.31 ± 0.39	8.51 ± 0.64	
MWYQKTLTLSAKSRGFHLVTDEILNQLADMPRVNIGLLHLLLQHTSASLTLNENCDPTVRHDMERFFLRTVPDNGNYEHDYEGADDMPSHIKSSMLGTSLVLPVHKGRIQTGTWQGIWLGEHRIHGGSRRIIATLQGE [P0AF48]	4.54 ± 0.35	> 8	4.19	4.33 ± 0.17	2.96 ± 0.08	4.74 ± 0.15	11.9 ± 1.5	3.98 ± 0.048	6.66 ± 0.43	5.51 ± 0.073	11.3 ± 0.81	4.31 ± 0.8
MYERYAGLIFDMDGTILDTEPTHRKAWREVLGHYGLQYDIQAMIALNGSPTWRIAQAIIELNQADLDPHALAREKTEAVRSMLLDSVEPLPLVDVVKSWHGRRPMAVGTGSESAIAEALLAHLGLRHYFDAVVAADHVKHHKPAPDTFLLCAQRMGVQPTQCVVFEDADFGIQAARAAGMDAVDVRLL	5.33 ± 0.13			1.29	2.62 ± 0.62	4.33 ± 0.098	6.18			2.46 ± 0.33	7.98 ± 0.48	4.41
MYIGIDLGTSGVKVILLNEQGEVVAAQTEKLTVSRPHPLWSEQDPEQWWQATDRAMKALGDQHSLQDVKALGIAGQMHGATLLDAQQRVLRPAILWNDGRCAQECTLLEARVPQSRVITGNLMMPGFTAPKLLWVQRHEPEIFRQIDKVLLPKDYLRLRMTGEFASDMSDAAGTMWLDVAKRDWSDVMLQACDLSRDQMPALYEGSEITGALLPEVAKAWGMATVPVVAGGGDNAAGAVGVGMVDANQAMLSLGTSGVYFAVSEGFLSKPESAVHSFCHALPQRWHLMSVMLSAASCLDWAAKLTGLSNVPALIAAAQQADESAEPVWFLPYLSGERTPHNNPQAKGVFFGLTHQHGPNELARAVLEGVGYALADGMDVVHACGIKPQSVTLIGGGARSEYWRQMLADISGQQLDYRTGGDVGPALGAARLAQIAANPEKSLIELLPQLPLEQSHLPDAQRYAAYQPRRETFRRLYQQLLPLMA	5.25 ± 0.23	4.96 ± 0.27	5.75 ± 1.6	4.5 ± 0.047	3.52 ± 0.21	5.87 ± 0.13	9.67 ± 1.8	4.57 ± 0.12	8 ± 1.8	6.62 ± 0.53	12.5 ± 0.58	4.82 ± 0.32
MYKTIIMPVDVFEMELSDKAVRHAEFLAQDDGVIHLLHVLPGSASLSLHRFAADVRRFEEHLQHEAQERLQTMVSHFTIDPSRIKQHVRFGSVRDEVNELAEELGADVVVIGSRNPSISTHLLGSNASSVIRHANLPVLVVR			4.48	4.18 ± 0.48	3.06 ± 0.038	6.27	12 ± 1.8	3.99 ± 0.43	6.48 ± 0.34	6.06 ± 0.33	10.7	4.71 ± 0.33
MYLSKVIIARAWSRDLYQLHQGLWHLFPNRPDAARDFLFHVEKRNTPEGCHVLLQSAQMPVSTAVATVIKTKQVEFQLQVGVPLYFRLRANPIKTILDNQKRLDSKGNIKRCRVPLIKEAEQIAWLQRKLGNAARVEDVHPISERPQYFSGDGKSGKIQTVCFEGVLTINDAPALIDLVQQGIGPAKSMGCGLLSLAPL	5.96 ± 0.57				1.61							
MYPVDLHMHTVASTHAYSTLSDYIAQAKQKGIKLFAITDHGPDMEDAPHHWHFINMRIWPRVVDGVGILRGIEANIKNVDGEIDCSGKMFDSLDLIIAGFHEPVFAPHDKATNTQAMIATIASGNVHIISHPGNPKYEIDVKAVAEAAAKHQVALEINNSSFLHSRKGSEDNCREVAAAVRDAGGWVALGSDSHTAFTMGEFEECLKILDAVDFPPERILNVSPRRLLNFLESRGMAPIAEFADL	4.97 ± 0.41	4.01 ± 0.17	3.945 ± 0.0077	3.925 ± 0.00062	3.11 ± 0.53	4.99 ± 0.23	9.55 ± 1.1	4.04 ± 0.4	6.47 ± 0.46	5.73 ± 0.19	11.9 ± 0.49	4.67 ± 0.18
MYQHHNWQGALLDYPVSKVVCVGSNYAKHIKEMGSAVPEEPVLFIKPETALCDLRQPLAIPSDFGSVHHEVELAVLIGATLRQATEEHVRKAIAGYGVALDLTLRDVQGKMKKAGQPWEKAKAFDNSCPLSGFIPAAEFTGDPQNTTLSLSVNGEQRQQGTTADMIHKIVPLIAYMSKFFTLKAGDVVLTGTPDGVGPLQSGDELTVTFDGHSLTTRVL	6.01 ± 0.48	4.64 ± 0.98	5.44 ± 0.96	4.95 ± 0.3	3.26 ± 0.39	6.22 ± 0.61	11.2 ± 0.037	5.18 ± 0.86	10.1 ± 0.033	5.856 ± 0.052	12.6 ± 0.54	5.67 ± 0.93
MYQPDFPPVPFRSGLYPVVDSVQWIERLLDAGVRTLQLRIKDRRDEEVEADVVAAIALGRRYNARLFINDYWRLAIKHQAYGVHLGQEDLQATDLNAIRAAGLRLGVSTHDDMEIDVALAARPSYIALGHVFPTQTKQMPSAPQGLEQLARHVERLADYPTVAIGGISLARAPAVIATGVGSIAVVSAITQAADWRLATAQLLEIAGVGDE	6.1 ± 1.1	3.05 ± 0.11	3.34 ± 0.23	2.77 ± 0.045	2.31 ± 0.52	4.76 ± 0.58	6.78 ± 0.74	3.01 ± 0.54	5.18 ± 0.5	2.01 ± 0.57	3.48 ± 0.66	4.173 ± 0.028
MYQVVASDLDGTLLSPDHTLSPYAKETLKLLTARGINFVFATGRHHVDVGQIRDNLEIKSYMITSNGARVHDLDGNLIFAHNLDRDIASDLFGVVNDNPDIITNVYRDDEWFMNRHRPEEMRFFKEAVFQYALYEPGLLEPEGVSKVFFTCDSHEQLLPLEQAINARWGDRVNVSFSTLTCLEVMAGGVSKGHALEAVAKKLGYSLKDCIAFGDGMNDAEMLSMAGKGCIMGSAHQRLKDLHPELEVIGTNADDAVPHYLRKLYLS	3.6 ± 0.88	2.94 ± 0.046	3.53 ± 0.15	3.31 ± 0.055		4.88 ± 0.24	8.98 ± 0.53	3.39 ± 0.091	5.36 ± 0.23	4.82 ± 0.18	10.2 ± 0.16	3.67 ± 0.27
MYRIVLGKVSTLSAAPLPPGLREQAPQGPRRERWLAGRALLSHTLSPLPEIIYGEQGKPAFAPEMPLWFNLSHSGDDIALLLSDEGEVGCDIEVIRPRANWRWLANAVFSLGEHAEMDAVHPDQQLEMFWRIWTRKEAIVKQRGGSAWQIVSVDSTYHSSLSVSHCQLENLSLAICTPTPFTLTADSVQWIDSVN	4.86 ± 0.67		3.56 ± 0.17	2.53 ± 0.075	2.55 ± 0.032	4.94 ± 0.18	8.278 ± 0.081	3.78 ± 0.16	6.11 ± 0.44	5.86 ± 0.65	11.1 ± 2.4	3.99 ± 0.64
MYSSSRKRCPKTKWALKLLTAAFLAASPAAKSAVNNAYDALIIEARKGNTQPALSWFALKSALSNNQIADWLQIALWAGQDKQVITVYNRYRHQQLPARGYAAVAVAYRNLQQWQNSLTLWQKALSLEPQNKDYQRGQILTLADAGHYDTALVKLKQLNSGAPDKANLLAEAYIYKLAGRHQDELRAMTESLPENASTQQYPTEYVQALRNNQLAAAIDDANLTPDIRADIHAELVRLSFMPTRSESERYAIADRALAQYAALEILWHDNPDRTAQYQRIQVDHLGALLTRDRYKDVISHYQRLKKTGQIIPPWGQYWVASAYLKDHQPKKAQSIMTELFYHKETIAPDLSDEELADLFYSHLESENYPGALTVTQHTINTSPPFLRLMGTPTSIPNDTWLQGHSFLSTVAKYSNDLPQAEMTARELAYNAPGNQGLRIDYASVLQARGWPRAAENELKKAEVIEPRNINLEVEQAWTALTLQEWQQAAVLTHDVVEREPQDPGVVRLKRAVDVHNLAELRIAGSTGIDAEGPDSGKHDVDLTTIVYSPPLKDNWRGFAGFGYADGQFSEGKGIVRDWLAGVEWRSRNIWLEAEYAERVFNHEHKPGARLSGWYDFNDNWRIGSQLERLSHRVPLRAMKNGVTGNSAQAYVRWYQNERRKYGVSWAFTDFSDSNQRHEVSLEGQERIWSSPYLIVDFLPSLYYEQNTEHDTPYYNPIKTFDIVPAFEASHLLWRSYENSWEQIFSAGVGASWQKHYGTDVVTQLGYGQRISWNDVIDAGATLRWEKRPYDGDREHNLYVEFDMTFRF							> 16					
